# Test results reported in IntAct's records for PubMed 31515488.
# B1: Four and a half LIM domains protein 2 (Homo sapiens), Q14192 (parent)
# chain: MTERFDCHHCNESLFGKKYILREESPYCVVCFETLFANTCEECGKPIGCDCKDLSYKDRHWHEACFHCSQCRNSLVDKPFAAKEDQLLCTDCYSNEYSSKCQECKKTIMPGTRKMEYKGSSWHETCFICHRCQQPIGTKSFIPKDNQNFCVPCYEKQHAMQCVQCKKPITTGGVTYREQPWHKECFVCTACRKQLSGQRFTARDDFAYCLNCFCDLYAKKCAGCTNPISGLGGTKYISFEERQWHNDCFNCKKCSLSLVGRGFLTERDDILCPDCGKDI
# partner: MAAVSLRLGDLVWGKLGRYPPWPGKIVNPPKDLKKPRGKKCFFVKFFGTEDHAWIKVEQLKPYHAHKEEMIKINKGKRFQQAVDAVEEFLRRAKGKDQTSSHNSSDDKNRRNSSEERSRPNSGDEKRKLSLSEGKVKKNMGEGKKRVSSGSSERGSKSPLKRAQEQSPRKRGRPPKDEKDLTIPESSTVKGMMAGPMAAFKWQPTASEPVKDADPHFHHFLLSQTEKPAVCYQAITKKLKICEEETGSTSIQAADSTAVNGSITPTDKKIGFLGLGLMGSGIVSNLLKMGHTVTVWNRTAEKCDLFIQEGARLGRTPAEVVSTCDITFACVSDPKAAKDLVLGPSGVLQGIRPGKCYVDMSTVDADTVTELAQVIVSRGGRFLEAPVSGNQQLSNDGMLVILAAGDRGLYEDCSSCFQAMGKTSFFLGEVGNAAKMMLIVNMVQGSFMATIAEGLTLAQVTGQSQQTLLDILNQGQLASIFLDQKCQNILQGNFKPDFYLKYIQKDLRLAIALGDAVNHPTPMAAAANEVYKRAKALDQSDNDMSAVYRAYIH
# B2: Myogenin (Homo sapiens), P15173 (parent)
# chain: MELYETSPYFYQEPRFYDGENYLPVHLQGFEPPGYERTELTLSPEAPGPLEDKGLGTPEHCPGQCLPWACKVCKRKSVSVDRRRAATLREKRRLKKVNEAFEALKRSTLLNPNQRLPKVEILRSAIQYIERLQALLSSLNQEERDLRYRGGGGPQPGVPSECSSHSASCSPEWGSALEFSANPGDHLLTADPTDAHNLHSLTSIVDSITVEDVSVAFPDETMPN
# partner: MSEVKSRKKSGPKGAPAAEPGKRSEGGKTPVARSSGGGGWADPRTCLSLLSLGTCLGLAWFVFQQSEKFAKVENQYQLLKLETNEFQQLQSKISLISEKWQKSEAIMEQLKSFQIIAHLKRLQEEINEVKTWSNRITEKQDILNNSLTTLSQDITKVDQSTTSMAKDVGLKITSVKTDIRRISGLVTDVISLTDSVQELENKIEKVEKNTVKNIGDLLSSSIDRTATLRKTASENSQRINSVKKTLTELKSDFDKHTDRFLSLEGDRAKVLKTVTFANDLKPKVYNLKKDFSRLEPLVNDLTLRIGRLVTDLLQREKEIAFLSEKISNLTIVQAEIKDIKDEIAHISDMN
# B3: Paraneoplastic antigen Ma2 (Homo sapiens), Q9UL42 (parent)
# chain: MALALLEDWCRIMSVDEQKSLMVTGIPADFEEAEIQEVLQETLKSLGRYRLLGKIFRKQENANAVLLELLEDTDVSAIPSEVQGKGGVWKVIFKTPNQDTEFLERLNLFLEKEGQTVSGMFRALGQEGVSPATVPCISPELLAHLLGQAMAHAPQPLLPMRYRKLRVFSGSAVPAPEEESFEVWLEQATEIVKEWPVTEAEKKRWLAESLRGPALDLMHIVQADNPSISVEECLEAFKQVFGSLESRRTAQVRYLKTYQEEGEKVSAYVLRLETLLRRAVEKRAIPRRIADQVRLEQVMAGATLNQMLWCRLRELKDQGPPPSFLELMKVIREEEEEEASFENESIEEPEERDGYGRWNHEGDD
# B4: Histone-lysine N-methyltransferase SMYD1 (Homo sapiens), Q8NB12 (parent)
# chain: MTIGRMENVEVFTAEGKGRGLKATKEFWAADIIFAERAYSAVVFDSLVNFVCHTCFKRQEKLHRCGQCKFAHYCDRTCQKDAWLNHKNECSAIKRYGKVPNENIRLAARIMWRVEREGTGLTEGCLVSVDDLQNHVEHFGEEEQKDLRVDVDTFLQYWPPQSQQFSMQYISHIFGVINCNGFTLSDQRGLQAVGVGIFPNLGLVNHDCWPNCTVIFNNGNHEAVKSMFHTQMRIELRALGKISEGEELTVSYIDFLNVSEERKRQLKKQYYFDCTCEHCQKKLKDDLFLGVKDNPKPSQEVVKEMIQFSKDTLEKIDKARSEGLYHEVVKLCRECLEKQEPVFADTNIYMLRMLSIVSEVLSYLQAFEEASFYARRMVDGYMKLYHPNNAQLGMAVMRAGLTNWHAGNIEVGHGMICKAYAILLVTHGPSHPITKDLEAMRVQTEMELRMFRQNEFMYYKMREAALNNQPMQVMAEPSNEPSPALFHKKQ
# B5: X antigen family member 3 (Homo sapiens), Q8WTP9 (parent)
# chain: MIWRGRSTYRPRPRRSVPPPELIGPMLEPGDEEPQQEEPPTESRDPAPGQEREEDQGAAETQVPDLEADLQELSQSKTGGECGNGPDDQGKILPKSEQFKMPEGGDRQPQV
# partner: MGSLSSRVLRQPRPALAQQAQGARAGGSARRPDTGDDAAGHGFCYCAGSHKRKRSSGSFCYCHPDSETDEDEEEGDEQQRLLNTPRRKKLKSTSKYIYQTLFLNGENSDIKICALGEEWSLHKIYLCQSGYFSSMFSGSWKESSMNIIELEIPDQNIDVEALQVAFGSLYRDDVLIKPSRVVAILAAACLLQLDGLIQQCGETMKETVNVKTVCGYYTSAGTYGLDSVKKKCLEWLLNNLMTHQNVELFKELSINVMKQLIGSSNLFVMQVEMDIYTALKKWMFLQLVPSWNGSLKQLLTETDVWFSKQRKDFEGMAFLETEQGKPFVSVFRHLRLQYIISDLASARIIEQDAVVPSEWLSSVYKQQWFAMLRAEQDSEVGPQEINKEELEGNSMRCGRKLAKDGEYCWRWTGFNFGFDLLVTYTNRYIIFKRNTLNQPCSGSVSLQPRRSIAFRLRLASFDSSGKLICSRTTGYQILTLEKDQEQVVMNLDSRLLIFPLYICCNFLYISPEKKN
# B6: Keratin-associated protein 3-2 (Homo sapiens), Q9BYR7 (parent)
# chain: MDCCASRSCSVPTGPATTICSSDKSCRCGVCLPSTCPHTVWLLEPICCDNCPPPCHIPQPCVPTCFLLNSCQPTPGLETLNLTTFTQPCCEPCLPRGC
# Variants of: B1
# Details: with glyr1_human GLYR1, Q49A26
row,Variant,effect of a mutation on the interaction
1,N95K,with no effect

# Variants of: B2
# Details: with ikip_human IKBIP
row,Variant,effect of a mutation on the interaction
1,A181T,disrupting interaction strength

# Variants of: B3
# Details: with sdcb1_human SDCBP
row,Variant,effect of a mutation on the interaction
1,E186K,with no effect

# Variants of: B3
# Details: with psa1_human PSMA1, P25786
# Sequence of psa1_human PSMA1, P25786 (P25786 whole entry): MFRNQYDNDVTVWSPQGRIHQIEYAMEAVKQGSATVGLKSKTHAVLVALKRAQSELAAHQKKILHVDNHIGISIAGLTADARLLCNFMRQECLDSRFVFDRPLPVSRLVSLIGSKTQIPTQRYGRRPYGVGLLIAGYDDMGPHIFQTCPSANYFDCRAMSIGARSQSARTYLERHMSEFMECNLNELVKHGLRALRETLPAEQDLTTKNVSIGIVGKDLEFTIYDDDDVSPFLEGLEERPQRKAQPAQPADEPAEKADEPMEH
row,Variant,effect of a mutation on the interaction
1,E186K,with no effect

# Variants of: B4
# Details: with bhe40_human BHLHE40, O14503
# Sequence of bhe40_human BHLHE40, O14503 (O14503 whole entry): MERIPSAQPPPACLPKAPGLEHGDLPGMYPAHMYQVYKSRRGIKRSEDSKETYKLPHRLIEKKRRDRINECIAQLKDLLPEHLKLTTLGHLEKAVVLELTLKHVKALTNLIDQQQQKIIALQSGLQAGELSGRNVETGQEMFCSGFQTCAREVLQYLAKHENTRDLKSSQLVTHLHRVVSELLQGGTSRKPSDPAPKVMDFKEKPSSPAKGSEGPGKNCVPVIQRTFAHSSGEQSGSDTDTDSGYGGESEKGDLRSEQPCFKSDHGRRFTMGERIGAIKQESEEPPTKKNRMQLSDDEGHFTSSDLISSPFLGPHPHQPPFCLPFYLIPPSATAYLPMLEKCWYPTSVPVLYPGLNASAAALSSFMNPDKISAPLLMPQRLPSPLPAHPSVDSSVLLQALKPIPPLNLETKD
row,Variant,effect of a mutation on the interaction
1,R441W,with no effect

# Variants of: B5
# Details: with gmcl1_human GMCL1, Q96IK5
row,Variant,effect of a mutation on the interaction
1,I92F,with no effect

# Variants of: B6
# Details: with yipf3_human YIPF3, Q9GZM5
# Sequence of yipf3_human YIPF3, Q9GZM5 (Q9GZM5 whole entry): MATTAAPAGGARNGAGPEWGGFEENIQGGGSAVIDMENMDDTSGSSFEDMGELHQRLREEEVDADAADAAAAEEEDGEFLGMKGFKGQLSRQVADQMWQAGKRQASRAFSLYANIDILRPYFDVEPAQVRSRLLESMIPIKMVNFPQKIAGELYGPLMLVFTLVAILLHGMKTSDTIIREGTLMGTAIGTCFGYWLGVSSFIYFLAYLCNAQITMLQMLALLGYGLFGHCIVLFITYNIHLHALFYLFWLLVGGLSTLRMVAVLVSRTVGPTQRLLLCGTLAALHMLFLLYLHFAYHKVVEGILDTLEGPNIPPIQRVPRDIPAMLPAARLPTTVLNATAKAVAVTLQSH
row,Variant,effect of a mutation on the interaction
1,S8G,with no effect
2,R27C,with no effect

# Variants of: B6
# Details: with hxa1_human HOXA1, P49639
# Sequence of hxa1_human HOXA1, P49639 (P49639 whole entry): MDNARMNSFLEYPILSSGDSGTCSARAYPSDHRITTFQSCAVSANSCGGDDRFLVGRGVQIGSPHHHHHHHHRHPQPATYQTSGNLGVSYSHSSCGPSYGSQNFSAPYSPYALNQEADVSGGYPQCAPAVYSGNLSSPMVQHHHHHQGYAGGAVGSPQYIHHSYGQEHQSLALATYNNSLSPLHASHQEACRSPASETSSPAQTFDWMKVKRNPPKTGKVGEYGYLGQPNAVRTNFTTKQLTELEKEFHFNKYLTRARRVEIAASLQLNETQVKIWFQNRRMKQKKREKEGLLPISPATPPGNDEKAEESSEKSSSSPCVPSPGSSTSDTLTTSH
row,Variant,effect of a mutation on the interaction
1,S8G,with no effect
2,R27C,with no effect

# Variants of: B6
# Details: with otx1_human OTX1, P32242
# Sequence of otx1_human OTX1, P32242 (P32242 whole entry): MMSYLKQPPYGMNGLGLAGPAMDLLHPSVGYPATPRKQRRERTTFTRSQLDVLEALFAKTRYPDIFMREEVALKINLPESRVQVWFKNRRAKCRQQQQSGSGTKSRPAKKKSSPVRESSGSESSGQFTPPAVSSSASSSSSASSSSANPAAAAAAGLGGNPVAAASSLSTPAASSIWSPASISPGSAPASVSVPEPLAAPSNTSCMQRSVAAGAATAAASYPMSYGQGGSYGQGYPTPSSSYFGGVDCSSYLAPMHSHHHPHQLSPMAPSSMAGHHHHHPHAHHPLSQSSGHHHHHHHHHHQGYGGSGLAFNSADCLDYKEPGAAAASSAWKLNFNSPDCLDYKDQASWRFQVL
row,Variant,effect of a mutation on the interaction
1,S8G,with no effect
2,R27C,with no effect
